According to US11819552B2, “Antibody-drug conjugates targeting uPARAP” (RIGSHOSPITALET, priority 2016, dated 2023):
“Also recorded” adds a separate entry of the source.

Assays:
[1] = biological target: T1, soluble truncated uPARAP protein containing the first 3 N-terminal domains of human uPARAP (Homo sapiens, UniProt Q9UBG0); experiment: ELISA analysis of uPARAP-binding of mAbs; details: after reduction step of conjugation, or in ADC form
T1 construct: a soluble truncated uPARAP protein containing the first 3 N-terminal domains of human uPARAP
T1 sequence (Q9UBG0 31-365): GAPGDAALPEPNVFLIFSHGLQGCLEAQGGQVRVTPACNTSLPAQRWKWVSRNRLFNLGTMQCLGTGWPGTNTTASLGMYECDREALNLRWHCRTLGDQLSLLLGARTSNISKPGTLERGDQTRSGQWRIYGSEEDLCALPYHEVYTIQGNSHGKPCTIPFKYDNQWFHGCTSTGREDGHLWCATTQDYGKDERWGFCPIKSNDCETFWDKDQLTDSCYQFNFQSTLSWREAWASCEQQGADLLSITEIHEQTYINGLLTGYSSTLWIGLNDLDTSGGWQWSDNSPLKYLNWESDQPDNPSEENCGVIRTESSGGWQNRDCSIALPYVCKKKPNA
Method: Untreated mAbs (2h9 or aTNP), same mAbs subjected to the reduction procedure of conjugation (see above), or ADCs 2h9-vc-MMAE or aTNP-vc-MMAE, were then employed as a primary antibody, followed by a HRP-conjugated rabbit anti-mouse Ig secondary antibody. Finally an o-phenylenediamine dihydrochloride-containing substrate solution was added, and the color reaction was stopped by adding 1M H2SO4. Plates were read at 492 nm using a plate reader.

[2] = biological target: T2, soluble recombinant protein consisting of the three N-terminal domains of uPARAP (CysR, FN-II and CTLD-1) (Homo sapiens, UniProt Q9UBG0); details: immobilized 2h9, soluble three-domain protein; Jürgensen et al., 2011; cited from earlier work
T2 construct: A soluble recombinant protein consisting of the three n-terminal domains of uPARAP (CysR, FN-II and CTLD-1)
T2 sequence (Q9UBG0 41-360 limits assumed): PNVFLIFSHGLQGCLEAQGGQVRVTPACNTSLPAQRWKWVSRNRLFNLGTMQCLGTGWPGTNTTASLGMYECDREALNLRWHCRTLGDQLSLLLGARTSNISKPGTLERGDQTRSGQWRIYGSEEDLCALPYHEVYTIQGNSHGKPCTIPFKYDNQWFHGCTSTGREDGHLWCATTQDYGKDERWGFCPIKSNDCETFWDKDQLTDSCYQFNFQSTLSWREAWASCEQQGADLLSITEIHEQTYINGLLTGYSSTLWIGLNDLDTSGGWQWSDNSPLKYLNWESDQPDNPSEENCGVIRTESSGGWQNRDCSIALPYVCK

uPARAP = biological target: T3, uPARAP (Homo sapiens, UniProt Q9UBG0); experiment: Antibody reactivity with uPARAP; format: binding; details: listed as 2h9
T3 sequence (Q9UBG0 31-1479): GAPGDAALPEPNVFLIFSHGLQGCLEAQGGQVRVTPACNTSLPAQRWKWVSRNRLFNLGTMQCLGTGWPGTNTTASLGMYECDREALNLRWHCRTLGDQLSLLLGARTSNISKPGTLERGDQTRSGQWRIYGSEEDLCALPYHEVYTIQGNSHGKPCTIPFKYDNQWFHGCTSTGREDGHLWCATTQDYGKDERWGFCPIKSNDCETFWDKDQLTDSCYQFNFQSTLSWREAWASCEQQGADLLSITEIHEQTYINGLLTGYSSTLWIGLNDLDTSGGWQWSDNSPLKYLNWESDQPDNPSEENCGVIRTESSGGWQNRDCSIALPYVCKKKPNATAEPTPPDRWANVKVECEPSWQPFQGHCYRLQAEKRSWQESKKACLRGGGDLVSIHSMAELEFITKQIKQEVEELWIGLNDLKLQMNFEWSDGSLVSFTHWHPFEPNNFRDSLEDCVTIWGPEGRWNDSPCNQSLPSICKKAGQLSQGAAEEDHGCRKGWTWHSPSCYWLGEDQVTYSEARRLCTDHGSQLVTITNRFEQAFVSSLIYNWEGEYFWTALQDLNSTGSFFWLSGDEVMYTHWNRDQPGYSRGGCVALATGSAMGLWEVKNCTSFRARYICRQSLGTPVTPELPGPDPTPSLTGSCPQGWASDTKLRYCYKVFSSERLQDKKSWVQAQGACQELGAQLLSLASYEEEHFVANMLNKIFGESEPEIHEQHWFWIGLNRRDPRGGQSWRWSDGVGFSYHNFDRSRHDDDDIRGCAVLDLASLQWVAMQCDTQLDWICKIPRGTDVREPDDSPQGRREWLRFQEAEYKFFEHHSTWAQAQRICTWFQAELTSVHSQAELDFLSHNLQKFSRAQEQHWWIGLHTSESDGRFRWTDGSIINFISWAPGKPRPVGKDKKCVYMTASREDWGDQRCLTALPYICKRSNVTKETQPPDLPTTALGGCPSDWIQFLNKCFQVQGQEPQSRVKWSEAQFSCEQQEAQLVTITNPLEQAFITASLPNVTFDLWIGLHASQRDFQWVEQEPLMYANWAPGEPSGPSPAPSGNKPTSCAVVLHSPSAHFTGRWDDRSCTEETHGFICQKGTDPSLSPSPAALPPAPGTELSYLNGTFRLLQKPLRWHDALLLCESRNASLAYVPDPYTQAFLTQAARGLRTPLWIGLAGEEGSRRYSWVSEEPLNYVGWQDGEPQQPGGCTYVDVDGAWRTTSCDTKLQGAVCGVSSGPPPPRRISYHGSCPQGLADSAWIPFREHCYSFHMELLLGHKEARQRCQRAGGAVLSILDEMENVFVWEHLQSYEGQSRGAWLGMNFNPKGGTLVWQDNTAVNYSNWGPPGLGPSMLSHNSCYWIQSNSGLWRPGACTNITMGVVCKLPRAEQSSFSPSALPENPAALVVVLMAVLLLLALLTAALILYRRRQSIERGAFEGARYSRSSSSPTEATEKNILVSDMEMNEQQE

B1: mAb 2h9: mouse monoclonal IgG1k anti-uPARAP antibody clone 2.h.9: F12, produced by hybridoma cell culture (protein)
light: DIQMTQSPASQSASLGESVTITCLASQTIGTWLAWYQQKPGKSPQLLIYAATTLTDGVPSRFSGAGSGTKFSLKISSLQAEDFASYFCQEFFSTPFTFGSGTKLELKRADAAPTVSIFPPSSEQLTSGGASVVCFLNNFYPKDINVKWKIDGGERQNGVLNSWTDQDSKDSTYSMSSTLTLTKDEYERHNSYTCEATHKTSTSPIVKSFNRNEC
heavy: QVQLQQPGTELVRPGLSVKLSCKASGYTFTSYWMNWVKQRPGQGLEWIGMIHPSNDEKRINQKFKDKATLTVDKFSSTVYMQVSSPTSEDSAVYYCARGGGDYVGDYALDFWGQGTSVTVSSAKTTPPSVYPLAPGSAAQTNSMVTLGCLVKGYFPEPVTVTWNSGSLSSGVHTFPAVLQSDLYTLSSSVTVPSSTWPSETVTCNVAHPASSTKVDKKIVPRDCGCKPCICTVPEVSSVFIFPPKPKDVLTITLTPKVTCVVVDISKDDPEVQFSWFVDDVEVHTAQTQPREEQFNSTFRSVSELPIMHQDWLNGKEFKCRVNSAAFPAPIEKTISKTKGRPKAPQVYTIPPPKEQMAKDKVSLTCMITDFFPEDITVEWQWNGQPAENYKNTQPIMDTDGSYFIYSKLNVQKSNWEAGNTFTCSVLHEGLHNHHTEKSLSHSPGK
Affinity towards uPARAP following conjugation procedure [1]: retained affinity | Affinity towards uPARAP following conjugation procedure ([1]; listed as 2h9): negligible loss of affinity | Binding in BIAcore setup [2]: binds to immobilized 2h9 | Reactivity with human uPARAP (uPARAP): reactive against both human and murine uPARAP; also recorded: reacts with both human and mouse uPARAP
